Data published in the supplement of paper PMC10567573.

B1: MGC16075 (parent)
chain: AGSRQALSFEVPPCNYDPEKWIQ
B2: EHMT1 (parent)
chain: FHKDCASRVNNASYCPHCGEESSK

Variants of: B1
Assay: protein stability index of a GFP-peptide fusion (GPS, HEK-293T) (PSI 1-6); higher = more stable
Details: c terminus: native
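Also: lentivirally expressed fusions sorted by FACS into six bins by GFP to DsRed ratio, PSI derived from sequencing read proportions per bin multiplied by bin number.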

Going from AGSRQALSFEVPPCNYDPEQWIQ to AGSRQALSFEVPPCNYDPEPWIQ, the protein stability index falls from 4.32 to 4.17.

First: AGSRQALSFEVPPCNYDPEFWIQ
Second: AGSRQALSFEVPPCNYDPETWIQ
The protein stability index of the first is higher: 3.49 for the first, 3.33 for the second.

Going from AGSRQALSFEVPPCNYDPEIWIQ to AGSRQALSFEVPPCNYDPEYWIQ, the protein stability index rises from 2.46 to 3.78.

Going from AGSRQALSFEVPPCNYDPEMWIQ to AGSRQALSFEVPPCNYDPEDWIQ, the protein stability index rises from 2.69 to 4.29.

Compared with AGSRQALSFEVPPCNYDPESWIQ, AGSRQALSFEVPPCNYDPENWIQ is lower in protein stability index: 3.77 for the first, 3.71 for the second.

Compared with AGSRQALSFEVPPCNYDPEHWIQ, AGSRQALSFEVPPCNYDPEVWIQ is lower in protein stability index: 3.7 for the first, 1.96 for the second.

Going from AGSRQALSFEVPPCNYDPEAWIQ to AGSRQALSFEVPPCNYDPEGWIQ, the protein stability index falls from 3.93 to 3.9.

Going from AGSRQALSFEVPPSNYDPEKWIQ to AGSRQALSFEVPPLNYDPEKWIQ, the protein stability index falls from 2.56 to 1.39.

First: AGSRQALSFEVPPVNYDPEKWIQ
Second: AGSRQALSFEVPPMNYDPEKWIQ
The protein stability index of the first is higher: 1.95 for the first, 1.23 for the second.

Compared with AGSRQALSFEVPPYNYDPEKWIQ, AGSRQALSFEVPPWNYDPEKWIQ is lower in protein stability index: 2.23 for the first, 1.56 for the second.

First: AGSRQALSFEVPPNNYDPEKWIQ
Second: AGSRQALSFEVPPTNYDPEKWIQ
The protein stability index of the first is lower: 1.92 for the first, 2.2 for the second.

Going from AGSRQALSFEVPPQNYDPEKWIQ to AGSRQALSFEVPPRNYDPEKWIQ, the protein stability index falls from 2.05 to 1.92.

Compared with AGSRQALSFEVPPCNYDPEKWIH, AGSRQALSFEVPPCNYDPEKWIE is lower in protein stability index: 2.55 for the first, 1.97 for the second.

Going from AGSRQALSFEVPPCNYDPEKWIY to AGSRQALSFEVPPCNYDPEKWIV, the protein stability index rises from 2 to 4.81.

Compared with AGSRQALSFEVPPCNYDPEKWIW, AGSRQALSFEVPPCNYDPEKWIF is higher in protein stability index: 1.24 for the first, 2.23 for the second.

Going from AGSRQALSFEVPPCNYDPEKWIM to AGSRQALSFEVPPCNYDPEKWIG, the protein stability index rises from 1.82 to 3.04.

Going from AGSRQALSFEVPPCNYDPEKWIN to AGSRQALSFEVPPCNYDPEKWID, the protein stability index falls from 2.83 to 1.34.

Compared with AGSRQALSFEVPPCNYDPEKWII, AGSRQALSFEVPPCNYDPEKWIP is higher in protein stability index: 2.43 for the first, 4.37 for the second.

First: AGSRQALSFEVPPCNYDPEKWIK
Second: AGSRQALSFEVPPCNYDPEKQIQ
The protein stability index of the first is lower: 1.91 for the first, 2.83 for the second.

Compared with AGSRQALSFEVPPCNYDPEKDIQ, AGSRQALSFEVPPCNYDPEKHIQ is lower in protein stability index: 3.28 for the first, 2.32 for the second.

Compared with AGSRQALSFEVPPCNYDPEKLIQ, AGSRQALSFEVPPCNYDPEKVIQ is higher in protein stability index: 2.17 for the first, 2.88 for the second.

Compared with AGSRQALSFEVPPCNYDPEKNIQ, AGSRQALSFEVPPCNYDPEKIIQ is higher in protein stability index: 2.42 for the first, 4.03 for the second.

Compared with AGSRQALSFEVPPCNYDPEKKIQ, AGSRQALSFEVPPCNYDPEKAIQ is lower in protein stability index: 3.53 for the first, 2.33 for the second.

Compared with AGSRQALSFEVPPCNYDPEKFIQ, AGSRQALSFEVPPCNYDPEKPIQ is higher in protein stability index: 2.89 for the first, 5.2 for the second.

First: AGSRQALSFEVPPCNYDPEKRIQ
Second: AGSRQALSFEVPPCNYDPEKMIQ
The protein stability index of the first is lower: 2.16 for the first, 3.23 for the second.

Going from AGSRQALSFEVPPCNYDPEKWAQ to AGSRQALSFEVPPCNYDPEKWTQ, the protein stability index rises from 4.22 to 4.85.

Going from AGSRQALSFEVPPCNYDPEKWEQ to AGSRQALSFEVPPCNYDPEKWWQ, the protein stability index falls from 4.4 to 3.22.

First: AGSRQALSFEVPPCNYDPEKWPQ
Second: AGSRQALSFEVPPCNYDPEKWYQ
The protein stability index of the first is higher: 4.72 for the first, 2.85 for the second.

First: AGSRQALSFEVPPCNYDPEKWFQ
Second: AGSRQALSFEVPPCNYDPEKWHQ
The protein stability index of the first is lower: 4.43 for the first, 4.62 for the second.

Compared with AGSRQALSFEVPPCNYDPEKWQQ, AGSRQALSFEVPPCNYDPEKWGQ is higher in protein stability index: 4.78 for the first, 5.11 for the second.

Going from AGSRQALSFEVPPCNYDPEKWLQ to AGSRQALSFEVPPCNYDPEKWVQ, the protein stability index falls from 3.92 to 2.75.

Going from AGSRQALSFEVPPCNYDPEKWNQ to AGSRQALSFEVPPCNYDPEKWDQ, the protein stability index falls from 4.99 to 4.97.

Compared with AGSRQALSFEVPPCNYDPEKWCQ, AGSRQALSFEVPPCNYDPEKWSQ is higher in protein stability index: 4.56 for the first, 5.03 for the second.

Going from AGSRQALSFEVPPCNYDPEKWKQ to AGSRQALSFEVPPCNYDPEKWMQ, the protein stability index falls from 4.72 to 4.14.

Variants of: B2
Assay: as above
Details: c terminus: a fixed tail appended

First: FHKDCASRVNNASSCPHCGEESSK
Second: FHKDCASRVNNASVCPHCGEESSK
The protein stability index of the first is lower: 3.26 for the first, 3.44 for the second.

Going from FHKDCASRVNNASYCPHCGEKSSK to FHKDCASRVNNASYCPHCGEESSN, the protein stability index falls from 3.22 to 2.99.

Compared with FHKDCASRVENASYCPHCGEESSK, FHKDCASRVNYASYCPHCGEESSK is lower in protein stability index: 3.69 for the first, 2.68 for the second.

Compared with FHPDCASRVNNASYCPHCGEESSK, FHEDCASRVNNASYCPHCGEESSK is higher in protein stability index: 2.22 for the first, 3.83 for the second.

First: FHKDCASNVNNASYCPHCGEESSK
Second: FHKDCASQVNNASYCPHCGEESSK
The protein stability index of the first is higher: 3.94 for the first, 3.59 for the second.

Going from FMKDCASRVNNASYCPHCGEESSK to FHKDCASRTNNASYCPHCGEESSK, the protein stability index rises from 3.45 to 3.73.

Compared with CHKDCASRVNNASYCPHCGEESSK, FHKDCASRVNNASYCPHCGEESMK is lower in protein stability index: 5.43 for the first, 3.49 for the second.

Going from FHKDCASRVNNDSYCPHCGEESSK to FHKDCASRVNNASYQPHCGEESSK, the protein stability index falls from 4.27 to 3.67.

FHKDCASRVNNASYCFHCGEESSK and FHKQCASRVNNASYCPHCGEESSK are the same in protein stability index: 2.73 for the first, 2.73 for the second.

Compared with FHKDCASRVNNASYCPHWGEESSK, FHKDCAVRVNNASYCPHCGEESSK is higher in protein stability index: 2.31 for the first, 3.72 for the second.

Compared with FHKDCAQRVNNASYCPHCGEESSK, FHKDCAFRVNNASYCPHCGEESSK is lower in protein stability index: 3.23 for the first, 2.16 for the second.

Going from FHKDCARRVNNASYCPHCGEESSK to FHKDCASRVNNASYCPHCAEESSK, the protein stability index falls from 3.97 to 3.93.

Compared with FHKDCASRVNNASYCPHCTEESSK, FHKDCASRVNNASYCPHCQEESSK is lower in protein stability index: 3.51 for the first, 3.35 for the second.

Compared with FHKDCASRVNNASYCPHCVEESSK, FHKDCASRVNNASYCPHCSEESSK is lower in protein stability index: 4.11 for the first, 3.48 for the second.

FHKDCASRVNNASYCPHCGEEVSK gave a protein stability index of 3.38.
